Values quoted from earlier work as cited in patent US12509496B2 (Shanghai Minwei Biotechnology Co., LTD, priority 2020, dated 2025).

Settings: in the blood; cited from earlier work

Substance: dulaglutide
- half-life in vivo: 108 to 113 h
